Assay results reported in patent US20080103095A1 (HEALTH RESEARCH, published 2008).

Molecular target: T1, native hsp110 from murine tumor cells (Colon26 / colon 26, Meth A) and liver (mouse (murine colon 26 tumor), UniProt Q61699 2-858, limits assumed)
T1 construct: Native protein in cell extracts or chromatographic fractions; also called heat shock protein 110
Assay: immunoblot of the purified native hsp110 fraction (ion exchange and size exclusion) from Colon26 cells

T1 sequence (Q61699 2-858 limits assumed): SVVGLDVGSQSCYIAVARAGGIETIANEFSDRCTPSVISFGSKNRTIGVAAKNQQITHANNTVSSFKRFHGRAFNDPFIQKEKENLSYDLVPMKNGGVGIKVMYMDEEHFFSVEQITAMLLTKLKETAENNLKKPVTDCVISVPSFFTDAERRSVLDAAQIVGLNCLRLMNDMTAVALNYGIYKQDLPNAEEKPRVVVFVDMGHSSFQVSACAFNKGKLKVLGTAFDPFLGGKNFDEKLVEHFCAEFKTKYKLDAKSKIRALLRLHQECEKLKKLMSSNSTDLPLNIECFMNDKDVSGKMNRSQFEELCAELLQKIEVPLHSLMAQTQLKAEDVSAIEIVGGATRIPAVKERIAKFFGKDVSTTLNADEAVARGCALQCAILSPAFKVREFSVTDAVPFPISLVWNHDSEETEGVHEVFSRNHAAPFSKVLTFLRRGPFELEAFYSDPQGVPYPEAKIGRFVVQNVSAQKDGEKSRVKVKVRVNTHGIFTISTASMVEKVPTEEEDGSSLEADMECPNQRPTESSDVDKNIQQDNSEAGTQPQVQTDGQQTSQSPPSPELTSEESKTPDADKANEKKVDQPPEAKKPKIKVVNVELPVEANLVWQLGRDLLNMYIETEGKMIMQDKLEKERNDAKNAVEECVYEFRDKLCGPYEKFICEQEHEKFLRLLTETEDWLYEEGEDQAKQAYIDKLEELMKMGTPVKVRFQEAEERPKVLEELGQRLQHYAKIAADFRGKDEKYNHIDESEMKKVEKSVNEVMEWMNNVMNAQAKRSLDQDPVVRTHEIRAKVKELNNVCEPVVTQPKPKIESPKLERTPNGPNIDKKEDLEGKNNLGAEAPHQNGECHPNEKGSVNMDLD

B1: T-complex polypeptide1 (TCP-1) in Colon26 cells (other)
chain: not shown
Does B1 bind?
Result: no binding
